The record followed here is publication PMC10156733, “N-Formimidoylation/-iminoacetylation modification in aminoglycosides requires FAD-dependent and ligand-protein NOS bridge dual chemistry” (Nature Communications, 2023).

As usually defined, the Km is the substrate concentration at which the rate is half of its maximum. A word on the kcat: it is the maximal rate divided by the concentration of active sites. Usually Kd stands for the constant that tells how readily two partners part at equilibrium. A low value points to a tighter complex.

Series [1] addresses T1, AAC(6’)-Ie-APH(6”)-Ia; aac(6’)-Ie-aph(2”)-Ia (Staphylococcus aureus, UniProt P0A0C1).
T1 construct: gene aacA-aphD; synthetic gene, recombinant
Kind of series: in vitro N-acetylation assay. It counts as biochemical. The conditions noted are these: acetylation only to some extent.

For series [2], the system named is NCCCC(N)CC(=O)NC1C(N=C2NC3C(=O)NCC(O)C3N2)OC(CO)C(OC(N)=O)C1O. Kind of series: LC-MS of ST-F consumption. The series is classed as biochemical, Streptomyces luteocolor. Conditions: glycine + ST-F, ST-F varied 25-500 μM, 100 mM sodium phosphate pH 8, 37 °C, crystal complex with glycine.
Series [3] addresses T2, Orf1 (Streptomyces luteocolor, UniProt A0A125SZC1).
T2 construct: full length, 491 residues; pET28a, His-tagged (Ni-NTA), E. coli BL21(DE3); tetramer with FAD in each chain; peptide AFAC281GLHLVPR
T2 sequence (A0A125SZC1 1-491): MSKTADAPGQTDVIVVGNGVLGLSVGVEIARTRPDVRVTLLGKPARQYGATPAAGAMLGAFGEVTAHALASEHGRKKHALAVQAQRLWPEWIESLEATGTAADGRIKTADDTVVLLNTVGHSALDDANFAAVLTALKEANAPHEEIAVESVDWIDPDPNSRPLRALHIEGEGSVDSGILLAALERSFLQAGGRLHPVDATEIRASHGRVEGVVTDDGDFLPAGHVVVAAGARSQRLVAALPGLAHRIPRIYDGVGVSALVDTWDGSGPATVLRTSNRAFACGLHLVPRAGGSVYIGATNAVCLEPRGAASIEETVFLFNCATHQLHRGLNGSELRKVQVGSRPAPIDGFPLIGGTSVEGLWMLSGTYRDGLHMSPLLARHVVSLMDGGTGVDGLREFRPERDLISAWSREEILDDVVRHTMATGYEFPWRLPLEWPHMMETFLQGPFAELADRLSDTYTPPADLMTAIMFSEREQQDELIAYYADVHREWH
Kind of series: LC-MS of denatured protein; X-ray crystal structure. The series is classed as binding. The conditions noted are these: prosthetic group, copurified.

Series [4] has as its target T3, Orf1 (Streptomyces luteocolor, UniProt A0A125SZC1, E312A).
T3 construct: full length, 491 residues; pET28a, His-tagged (Ni-NTA), E. coli BL21(DE3); tetramer with FAD in each chain; peptide AFAC281GLHLVPR
Kind of series: isothermal titration calorimetry. The series is classed as binding. A general note: In ITC the heat of successive injections is recorded.

For series [5], the target named is T4, Orf1 (Streptomyces luteocolor, UniProt A0A125SZC1, R342A).
T4 construct: full length, 491 residues; pET28a, His-tagged (Ni-NTA), E. coli BL21(DE3); tetramer with FAD in each chain; peptide AFAC281GLHLVPR
Kind of series: isothermal titration calorimetry. It counts as binding. An excerpt: isothermal titration calorimetry on Orf1 | held the same ST-F binding affinity as the wild type

The target of series [6] is T2, Orf1. The series is described as follows: isothermal titration calorimetry. It counts as binding. An excerpt: isothermal titration calorimetry on Orf1 | binding affinities of ST-F versus Orf1 wild-type or mutants were estimated
Substrate in series [7]: NCCCC(N)CC(=O)NC1C(N=C2NC3C(=O)NCC(O)C3N2)OC(CO)C(OC(N)=O)C1O
The series is described as follows: LC-MS of ST-F consumption. Conditions: glycine + ST-F, ST-F varied 25-500 μM, 100 mM sodium phosphate pH 8, 37 °C. It counts as biochemical, Streptomyces luteocolor.

Substrate in the series “purified protein”: NCC(=O)O
Kind of series: purified protein. It counts as biochemical, Streptomyces luteocolor. The conditions noted are these: single substrate glycine (oxidation phase), 100 mM sodium phosphate pH 8, crystal complex also shows covalent glycine imine-N-O-S adduct at C281.

`NCC(=O)N[C@@H]1[C@H](O)[C@@H](OC(N)=O)[C@@H](CO)O[C@H]1N=C1N[C@@H]2[C@H](O)CNC(=O)[C@H]2N1` [compound 4, glycylthricin]: in series [1], the “in vitro N-acetylation assay” value is “inactivated glycylthricin by N-acetylation to some extent in in vitro assay”.

As for Orf1 (Streptomyces luteocolor; F316A), in series [2], the Km worked out at 190 µM and the kcat was 0.119 s⁻¹.

As to `Cc1cc2nc3c(=O)[nH]c(=O)nc-3n(C[C@H](O)[C@H](O)[C@H](O)COP(=O)(O)OP(=O)(O)OC[C@H]3O[C@@H](n4cnc5c(N)ncnc54)[C@H](O)[C@@H]3O)c2cc1C` [FAD], the “LC-MS of denatured protein; X-ray crystal structure” value on Orf1 [3] is reported as “This yellow cofactor was determined to be flavin adenine dinucleotide (FAD)”.

Consider `NCCCC(N)CC(=O)NC1C(N=C2NC3C(=O)NCC(O)C3N2)OC(CO)C(OC(N)=O)C1O` (centres unmarked) [compound 7, ST-F], for which the Kd on Orf1 [4] is 55.2 µM; on Orf1 [5], 14.3 µM; at Orf1 [6], 11.3 µM.

B1: Orf1 (Streptomyces luteocolor) (protein)
chain: MSKTADAPGQTDVIVVGNGVLGLSVGVEIARTRPDVRVTLLGKPARQYGATPAAGAMLGAFGEVTAHALASEHGRKKHALAVQAQRLWPEWIESLEATGTAADGRIKTADDTVVLLNTVGHSALDDANFAAVLTALKEANAPHEEIAVESVDWIDPDPNSRPLRALHIEGEGSVDSGILLAALERSFLQAGGRLHPVDATEIRASHGRVEGVVTDDGDFLPAGHVVVAAGARSQRLVAALPGLAHRIPRIYDGVGVSALVDTWDGSGPATVLRTSNRAFACGLHLVPRAGGSVYIGATNAVCLEPRGAASIEETVFLFNCATHQLHRGLNGSELRKVQVGSRPAPIDGFPLIGGTSVEGLWMLSGTYRDGLHMSPLLARHVVSLMDGGTGVDGLREFRPERDLISAWSREEILDDVVRHTMATGYEFPWRLPLEWPHMMETFLQGPFAELADRLSDTYTPPADLMTAIMFSEREQQDELIAYYADVHREWH
notes: full length, 491 residues; pET28a, His-tagged (Ni-NTA), E. coli BL21(DE3); tetramer with FAD in each chain; peptide AFAC281GLHLVPR
Consider B1, for which the Km in series [7] amounted to 196 µM; in the series “purified protein”, 202 µM. Also, the kcat worked out at 0.0513 s⁻¹ in series [7] and 0.0123 s⁻¹ in the series “purified protein”.
